The test system of experiment [1] is human umbilical vein endothelial cells (HUVECs). The experiment is described as follows: CuFL1A fluorescence, extracellular NO of cultured HUVECs. It counts as cell-based. Conditions: for effect of further additions of DEANO on CuFL1A emission: DEANO added; for CuFL1A fluorescence compared to extracellular environment of HUVECs: no DEANO. How it is done: Cells may be incubated with 1 μM or less, relative to total concentration, of the NO sensor in PBS buffer or a growth medium for imaging. Concentration may be adjusted to reduce the fluorescent signal intensity to desired levels. Imaging of extra-cellular NO may be performed directly in the growth medium for imaging, and images may be taken as often as needed following cell stimulation.
In another example study, pooled 4× passaged human umbilical vein endothelial cells (HUVECs) were grown in Corning Costar 96 well white plates with clear bottoms in EBM-2 media to 80-90% confluence. Half of the free metMb and metPEM suspensions were incubated with sodium sulfate to reduce the myoglobin back to oxyMb form. The free oxyMb and oxyPEM suspensions were then dialyzed for four hours to remove salt. The rest of the original metMb and metPEM suspensions were used as received.
A 4× concentrated FL1A stock solution (10 μM in PBS+gluc+ca+mg/DMSO), a 4× concentrated DEANO stock solution (200 μM in 10 mM NaOH), and a 4× concentrated LNNA stock solution (400 μM in PBS+glu+ca+mg) were prepared so that 50 μL of each was added per well to a final and consistent volume of 200 μL per well.
A 2× concentrated stock solution of metMb (50 mg/mL in PBS+gluc+ca+mg) and 2× concentrated oxyMb (50 mg/mL in PBS+gluc+ca+mg) solution were also prepared. […] Fluorescence readings were obtained from each well following a set 30-minute incubation period with each of the experimental groups.

The nature of experiment [2]: CuFL1A fluorescence NO sensor assay in solution. It counts as biochemical. Conditions: for CuFL1A fluorescence on addition of DEANO: DEANO added to the solution. Here is the method:
In various studies to test these potential mechanisms, PEM may be incubated with a NO probe. […] When non-emissive CuFL1A reacts with NO, Cu(II) is reduced to Cu(I), among other changes, to produce fluorescent FL1A-NO. In this manner, CuFL1A may be used as an NO sensor activated by fluorescence to assess the relative NO levels in solution. In various studies, cultured umbilical vein endothelial cells may be incubated with CuFL1A and either PEM or a control in order to assess changes in NO levels in the extracellular environment. In various studies, luminal chemiluminescence due to the presence of reactive oxygen species may be used to assess the biological consequences of PEM-bound NO promotion of neutrophil activation. The FL1A ligands may be dissolved in spectroscopic grade DMSO to achieve a final concentration of the stock solution of around […]. To determine the exact concentration, the stock solution may be diluted in pH 7 aqueous buffer and the absorbance of the bands at 504 and 499 nm may be measured with E=4.6×104 M-1 cm-1. The absorbance value and dilution factor may be recorded and the exact concentration of the ligand in the stock solution may be calculated. The DMSO stock solution of the metal-free ligand may be aliquoted in 50 μL portions and stored at -80° C. The aliquots may be thawed and the absorbance of the band at 504 or 499 nm may be checked before use. […] The copper complex may be prepared fresh, immediately before cell incubation, using one of the frozen aliquots of the ligand stock solution. […] The unused portion of the solution may be discarded by the end of the day. In an example study, half of the free MetMb and […] suspensions were incubated with sodium sulfate to reduce the myoglobin back to its oxyMb form. The free oxyMb and oxyPEM suspensions were then dialyzed for 4h to remove salt, and the rest of the original metMb and […] suspensions were used as received. […] A 2× concentrated stock solution of metMb (50 mg/mL in PBS) and oxyMb (50 mg/mL in PBS) was prepared. The final concentrations of empty polymersomes, […] and oxyPEM were determined by UV-Vis spectrometry and ICP-OES. The final volume in each well was 200 μL, and therefore 100 μL of each solution was added per well, thus diluting these original stock solutions by half. Fluorescence was measured various time points for each condition.

The conditions of experiment [3]: background values; cited from earlier work.
Experiment [4] can be described thus: Oxygen equilibrium binding curves (Hemox Analyzer, Hill model). Conditions: 37° C.; partial pressure of O2 at 50% saturation. Here is the method:
Oxygen equilibrium binding curves of PEM and free Mb dispersions may be measured using a Hemox™ Analyzer at physiological temperature (37° C.). In brief, samples may be allowed to saturate to a pO2 of 147 mm Hg using compressed air and then deoxygenated using a compressed nitrogen stream. UV-Vis absorbance measurements of oxygenated and deoxygenated samples may be recorded as a function of pO2 via dual wavelength spectroscopy. Oxygen-PEM/myoglobin equilibrium curves may be fit to a four-parameter (A0, A∞, P50, n) Hill model:
in which A0 and A∞ represent the absorbance at 0 mm Hg and at full O2 saturation, respectively. The pO2 represents the partial pressure of O2, and P50 represents the partial pressure of O2 where PEM/Mb is 50% saturated with oxygen. Lastly, ‘n’ represents the cooperativity coefficient of PEM/Mb. […] The lower O2 affinity (higher P50) of PEM than free myoglobin may be attributed to the shielding effect of the polymersome membrane, which was further found to delay the kinetics of O2 binding to PEM.

The test system of experiment [5] is human neutrophils incubated with HUVECs. The experiment can be described thus: Luminol chemiluminescence, neutrophil activation on HUVECs. Type of experiment: cell-based. Conditions: for generation of reactive oxygen species compared to luminol control: neutrophils with HUVECs, 30 minutes, maximal concentrations (25 mg/mL polymer or protein; metPEM 1.3 mg/mL metMb, 23.5 mg/mL polymer). How it is done:
(§1) In another example study, similar to the previous study, pooled 4× passaged human umbilical vein endothelial cells (HUVECs) were grown in Corning Costar 96 well white plate with clear bottoms in EBM-2 media to 80-90% confluence. Half of the free metMb and […] suspensions were incubated with sodium sulfate to reduce the myoglobin back to oxyMb form. The free oxyMb and oxyPEM suspensions were then dialyzed for four hours to remove salt. The rest of the original metMb and […] suspensions were used as received. Further, a ficoll-paque density gradient separation was used to purify fresh human neutrophils and re-suspend in media at a concentration of 6×10^6 neutrophils/mL. In the assay, 50 mL aliquots were added per well, with a final volume of 200 μL per well, as in the study above. […] A 2× concentrated stock solution of metMb (50 mg/mL in PBS+gluc+ca+mg) and 2× concentrated stock of oxyMb (50 mg/mL in PBS+gluc+ca+mag) were prepared. The final concentrations of empty polymersome, […], and oxyPEM were determined by UV-Vis spectrometry and ICP-OES. […] Further, 600 μM of a luminol solution in media containing 18.75 μ/mL horseradish peroxidase (HRP) was prepared, with final concentrations in assay wells of around 120 μM luminol and 3.75 μ/mL HRP. […] A luminometor was used to continuously measure instantaneous reactive oxygen species generation after addition of each treatment administered to the HUVECs with and without neutrophils (total assay time 30 minutes). At the end of the study, sample supernatant were aliquoted and the cells were fixed and frozen for future myeloperoxidase assays or MPO ELISAs to look at degranulation.

The subject of another experiment is HUVECs. The experiment can be described thus: Luminol chemiluminescence (reactive oxygen species) with HUVECs alone. It counts as cell-based, human. The following applies: HUVECs without neutrophils, 30 minutes. How it is done: as §1, with “received.” for “received. Further, a ficoll-paque density gradient separation was used to purify fresh human neutrophils and re-suspend in media at a concentration of 6×10^6 neutrophils/mL. In the assay, 50 mL aliquots were added per well, with a final volume of 200 μL per well, as in the study above.”

[6] abbreviates: no DEANO, higher concentrations (e.g. 25 mg/mL metMb).

Where two headings read alike, the source gives them in different places.

For the molecule `CCN(CC)/[N+]([O-])=N/O.CCNCC` [DEANO, diethylamine NO, reference compound], the “increase in CuFL1A emission in extracellular environment of HUVECs” value in experiment [1] (30-minute incubation) is around 1.5 fold. The “CuFL1A fluorescence compared to its intensity in PBS” value in experiment [2] (solution, no cells) was “around seven-fold”.
In the case of hemoglobin A: Normal adult hemoglobin A, the P50 in experiment [3] is 26.5 mmHg.
With “hemoglobin: oxygen-transporting protein in human red blood cells”, in experiment [3], the P50 is on record as 25-50 mmHg and the “affinity for oxygen / oxygen tension of release” value was 20 to 50 mmHg.

B1: free Mb: free (unencapsulated) myoglobin (protein, UniProt P68082 2-154, looked up)
Myoglobin: GLSDGEWQQVLNVWGKVEADIAGHGQEVLIRLFTGHPETLEKFDKFKHLKTEAEMKASEDLKKHGTVVLTALGGILKKKGHHEAELKPLAQSHATKHKIPIKYLEFISDAIIHVLHSKHPGDFGADAQGAMTKALELFRNDIAAKYKELGFQG
Turning to B1, in experiment [3], the P50 is 2.75 mmHg and the “affinity for oxygen / oxygen tension of release” value is 2 to 3 mmHg. Further, the P50 in experiment [4] is on record as around 2 mm Hg.

B2: metMb: metmyoglobin, free protein (protein, UniProt P68082 2-154, looked up)
Myoglobin: GLSDGEWQQVLNVWGKVEADIAGHGQEVLIRLFTGHPETLEKFDKFKHLKTEAEMKASEDLKKHGTVVLTALGGILKKKGHHEAELKPLAQSHATKHKIPIKYLEFISDAIIHVLHSKHPGDFGADAQGAMTKALELFRNDIAAKYKELGFQG
modifications: met (ferric) form
notes: metmyoglobin, free protein
With B2, the “total oxidative burst (integrated luminol chemiluminescence), neutrophil activation” value in experiment [5] (30 minute incubation) is given as “did not have any effects”. Moreover, the “generation of reactive oxygen species compared to luminol control” value in experiment [5] is listed as “no appreciable generation of reactive oxygen species”. In addition, in the experiment with HUVECs, the “generation of reactive oxygen species (luminol chemiluminescence)” value was “do not, in and of themselves, result in the generation of reactive oxygen species”. In experiment [1], the “effect of further additions of DEANO on CuFL1A emission” value is reported as “only able to partially mitigate” and the “CuFL1A fluorescence compared to extracellular environment of HUVECs” value is given as “diminished”. Moreover, the “CuFL1A fluorescence on addition of DEANO” value in experiment [2] is recorded as “the degree of amplification in CuFL1A emission was lower”. For the same molecule, in experiment [2] (setting [6]), the “CuFL1A fluorescence compared to its intensity in PBS” value is recorded as “dramatically reduced”.

B3: oxyMb: oxygenated myoglobin, free protein (protein, UniProt P68082 2-154, looked up)
Myoglobin: GLSDGEWQQVLNVWGKVEADIAGHGQEVLIRLFTGHPETLEKFDKFKHLKTEAEMKASEDLKKHGTVVLTALGGILKKKGHHEAELKPLAQSHATKHKIPIKYLEFISDAIIHVLHSKHPGDFGADAQGAMTKALELFRNDIAAKYKELGFQG
modifications: oxygenated form
notes: oxygenated myoglobin, free protein
On to B3, for which, in experiment [5] (DEANO added), the “effect of DEANO addition on neutrophil activation” value was “did not mitigate the levels of neutrophil activation”. The “generation of reactive oxygen species compared to luminol control” value in experiment [5] was “statistically significant increase”. Further, the “generation of reactive oxygen species (luminol chemiluminescence)” value in the experiment on HUVECs is “do not, in and of themselves, result in the generation of reactive oxygen species”. Further, in experiment [1], the “effect of further additions of DEANO on CuFL1A emission” value is “not able to mitigate” and the “CuFL1A fluorescence compared to extracellular environment of HUVECs” value is “diminished”. The “CuFL1A fluorescence on addition of DEANO” value in experiment [2] was “did not augment CuFL1A fluorescence”. Moreover, the “CuFL1A fluorescence compared to its intensity in PBS” value in experiment [2] (setting [6]) is “markedly decreased to baseline values”. For the same molecule, the “CuFL1A fluorescence compared to its intensity in PBS” value in experiment [2] (no DEANO, low concentrations (metMb up to 5 mg/mL)) is “greater”.

(Values after patent publication US20200138716A1, “COMPOSITIONS AND METHODS FOR INDUCING NANOPARTICLE-MEDIATED MICROVASCULAR EMBOLIZATION OF TUMORS” (Poseida Therapeutics, Inc., priority 2014, published 2020).)
